According to publication PMC7049810 (2020):
Each block holds one binder with its values, some of them ahead of it.

B1: MepS (enzyme)
chain: CSANNTAKNMHPETRAVGSETSSLQASQDEFENLVRNVDVKSRIMDQYADWKGVRYRLGGSTKKGIDCSGFVQRTFREQFGLELPRSTYEQQEMGKSVSRSNLRTGDLVLFRAGSTGRHVGIYIGNNQFVHASTSSGVIISSMNEPYWKKRYNEARRVLSRS
modifications: where used as fl-MepS in MST: NT647 RED-NHS dye on amines

What was measured:
Assay in all cases: MST
[1] = target: T1, PBP1A, purified (Escherichia coli, UniProt P02918 1-850, NT647 RED-NHS dye on amines (PBP1A was the labelled protein in all MST assays))
T1 chain: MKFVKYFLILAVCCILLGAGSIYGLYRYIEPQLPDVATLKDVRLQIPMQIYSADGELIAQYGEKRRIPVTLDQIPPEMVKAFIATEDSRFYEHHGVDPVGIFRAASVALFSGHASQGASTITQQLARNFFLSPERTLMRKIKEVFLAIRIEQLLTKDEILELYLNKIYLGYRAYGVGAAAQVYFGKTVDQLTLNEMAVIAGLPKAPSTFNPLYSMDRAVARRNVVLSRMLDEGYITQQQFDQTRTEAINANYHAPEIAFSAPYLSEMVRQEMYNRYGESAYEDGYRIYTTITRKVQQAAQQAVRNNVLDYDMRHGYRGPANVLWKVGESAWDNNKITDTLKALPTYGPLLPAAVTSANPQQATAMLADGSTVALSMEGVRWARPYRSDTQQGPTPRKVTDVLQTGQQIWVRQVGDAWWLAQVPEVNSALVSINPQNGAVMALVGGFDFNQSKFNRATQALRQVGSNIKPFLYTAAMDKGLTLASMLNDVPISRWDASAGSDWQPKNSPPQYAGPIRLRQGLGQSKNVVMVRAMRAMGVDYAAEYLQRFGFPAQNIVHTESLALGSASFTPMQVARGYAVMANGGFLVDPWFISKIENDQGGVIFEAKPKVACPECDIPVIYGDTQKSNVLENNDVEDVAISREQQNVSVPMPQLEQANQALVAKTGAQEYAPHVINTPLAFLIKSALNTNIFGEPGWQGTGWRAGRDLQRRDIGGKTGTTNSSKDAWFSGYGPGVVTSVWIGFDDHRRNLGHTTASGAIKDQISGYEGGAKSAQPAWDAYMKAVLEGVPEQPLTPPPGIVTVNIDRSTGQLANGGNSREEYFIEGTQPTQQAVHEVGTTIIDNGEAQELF

[2] = target: T2, PBP4, native, purified (Escherichia coli, UniProt P24228 21-477, where used as the labelled protein in MST: NT647 RED-NHS dye on amines)
T2 chain: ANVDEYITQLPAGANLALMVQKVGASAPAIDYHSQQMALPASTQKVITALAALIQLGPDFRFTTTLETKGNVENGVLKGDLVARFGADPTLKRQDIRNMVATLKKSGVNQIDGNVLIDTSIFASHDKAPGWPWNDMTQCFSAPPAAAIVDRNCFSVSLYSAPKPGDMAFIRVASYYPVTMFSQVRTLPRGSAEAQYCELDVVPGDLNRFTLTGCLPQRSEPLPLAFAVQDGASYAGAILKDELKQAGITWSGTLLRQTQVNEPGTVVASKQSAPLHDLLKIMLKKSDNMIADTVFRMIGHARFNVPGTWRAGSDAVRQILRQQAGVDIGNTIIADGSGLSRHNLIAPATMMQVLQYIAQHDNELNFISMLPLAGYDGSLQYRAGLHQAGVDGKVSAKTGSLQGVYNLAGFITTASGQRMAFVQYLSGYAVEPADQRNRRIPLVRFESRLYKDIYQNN

[3] = target: B1

Binder: B1
Kd [1]: 91 nM

Kd [2]: 332 nM
B2: PBP7, purified (enzyme)
chain: KTAAATTASQPEIASGSAMIVDLNTNKVIYSNHPDLVRPIASISKLMTAMVVLDARLPLDEKLKVDISQTPEMKGVYSRVRLNSEISRKDMLLLALMSSENRAAASLAHHYPGGYKAFIKAMNAKAKSLGMNNTRFVEPTGLSVHNVSTARDLTKLLIASKQYPLIGQLSTTREDMATFSNPTYTLPFRNTNHLVYRDNWNIQLTKTGFTNAAGHCLVMRTVINNKPVALVVMDAFGKYTHFADASRLRTWIETGKVMPVPAAALSYKKQKAAQMAAAGQTAQND
modifications: where used as the labelled protein in MST: NT647 RED-NHS dye on amines

Kd [3]: 1180 nM
B3: MepM (enzyme)
chain: YHRDATPIVKTIELEQNEIRSLLPEASEPIDQAAQEDEAIPQDELDDKIAGEAGVHEYVVSTGDTLSSILNQYGIDMGDITQLAAADKELRNLKIGQQLSWTLTADGELQRLTWEVSRRETRTYDRTAANGFKMTSEMQQGEWVNNLLKGTVGGSFVASARNAGLTSAEVSAVIKAMQWQMDFRKLKKGDEFAVLMSREMLDGKREQSQLLGVRLRSEGKDYYAIRAEDGKFYDRNGTGLAKGFLRFPTAKQFRISSNFNPRRTNPVTGRVAPHRGVDFAMPQGTPVLSVGDGEVVVAKRSGAAGYYVAIRHGRSYTTRYMHLRKILVKPGQKVKRGDRIALSGNTGRSTGPHLHYEVWINQQAVNPLTAKLPRTEGLTGSDRREFLAQAKEIVPQLRFD
